Data on 1 variant can be found in IntAct's records for PubMed 14613973.

B1: Fibroblast growth factor receptor 3 (Homo sapiens), P22607-1 (parent)
chain: MGAPACALALCVAVAIVAGASSESLGTEQRVVGRAAEVPGPEPGQQEQLVFGSGDAVELSCPPPGGGPMGPTVWVKDGTGLVPSERVLVGPQRLQVLNASHEDSGAYSCRQRLTQRVLCHFSVRVTDAPSSGDDEDGEDEAEDTGVDTGAPYWTRPERMDKKLLAVPAANTVRFRCPAAGNPTPSISWLKNGREFRGEHRIGGIKLRHQQWSLVMESVVPSDRGNYTCVVENKFGSIRQTYTLDVLERSPHRPILQAGLPANQTAVLGSDVEFHCKVYSDAQPHIQWLKHVEVNGSKVGPDGTPYVTVLKTAGANTTDKELEVLSLHNVTFEDAGEYTCLAGNSIGFSHHSAWLVVLPAEEELVEADEAGSVYAGILSYGVGFFLFILVVAAVTLCRLRSPPKKGLGSPTVHKISRFPLKRQVSLESNASMSSNTPLVRIARLSSGEGPTLANVSELELPADPKWELSRARLTLGKPLGEGCFGQVVMAEAIGIDKDRAAKPVTVAVKMLKDDATDKDLSDLVSEMEMMKMIGKHKNIINLLGACTQGGPLYVLVEYAAKGNLREFLRARRPPGLDYSFDTCKPPEEQLTFKDLVSCAYQVARGMEYLASQKCIHRDLAARNVLVTEDNVMKIADFGLARDVHNLDYYKKTTNGRLPVKWMAPEALFDRVYTHQSDVWSFGVLLWEIFTLGGSPYPGIPVEELFKLLKEGHRMDKPANCTHDLYMIMRECWHAAPSQRPTFKQLVEDLDRVLTVTSTDEYLDLSAPFEQYSPGGQDTPSSSSSGDDSVFAHDLLPPAPPSSGGSRT

In one assay the parent is B1. The following applies: with fgf1_human FGF1, P05230.
Sequence of fgf1_human FGF1, P05230 (P05230 whole entry): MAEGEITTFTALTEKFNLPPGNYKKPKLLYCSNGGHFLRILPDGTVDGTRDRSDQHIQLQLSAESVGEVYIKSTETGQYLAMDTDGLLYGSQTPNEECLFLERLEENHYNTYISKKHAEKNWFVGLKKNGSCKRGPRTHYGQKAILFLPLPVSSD
For P250R, the “effect of a mutation on the interaction” value is listed as “increasing interaction strength”.

In a further assay the parent is B1. As to conditions: with fgf2_human FGF2, P09038.
Sequence of fgf2_human FGF2, P09038 (P09038 whole entry): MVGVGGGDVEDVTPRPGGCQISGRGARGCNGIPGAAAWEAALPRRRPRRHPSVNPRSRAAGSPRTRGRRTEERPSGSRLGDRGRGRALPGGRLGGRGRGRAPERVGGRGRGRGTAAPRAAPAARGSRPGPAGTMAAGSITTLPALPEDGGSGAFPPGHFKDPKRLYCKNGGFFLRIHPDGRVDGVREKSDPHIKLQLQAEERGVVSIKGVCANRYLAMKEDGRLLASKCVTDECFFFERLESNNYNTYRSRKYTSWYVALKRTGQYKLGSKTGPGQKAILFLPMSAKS
On to P250R, for which the “effect of a mutation on the interaction” value is on record as “causing an interaction”.

Variants of B1 are the subject of a further assay. The following applies: with fgf9_human FGF9, P31371.
Take P250R: the “effect of a mutation on the interaction” value is reported as “causing an interaction”.
